These results are taken from patent publication EP3386536A2 (dated 2018).

The target in the assay is T1, human FcγRIIIA F158 (human, UniProt P08637 17-208).
T1 construct: also called CD16a F158 variant
Kind of assay: BLI (Octet Red 96), FcγR on anti-his tag biosensor, conjugate in solution, avidity binding model.

T1 sequence (P08637 17-208 limits assumed): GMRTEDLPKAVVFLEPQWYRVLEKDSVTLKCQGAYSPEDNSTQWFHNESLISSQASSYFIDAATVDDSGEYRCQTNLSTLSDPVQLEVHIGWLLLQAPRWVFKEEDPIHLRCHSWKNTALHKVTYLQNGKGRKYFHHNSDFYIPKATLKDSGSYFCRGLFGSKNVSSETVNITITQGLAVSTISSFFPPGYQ

B1: SBT040-G2 ATAC11 (antibody, human IgG2, kappa)
heavy: not shown
light: DIQMTQSPSSVSASVGDRVTITCRASQGIYSWLAWYQQKPGKAPNLLIYTASTLQSGVPSRFSGSGSGTDFTLTISSLQPEDFATYYCQQANIFPLTFGGGTKVEIKRTVAAPSVFIFPPSDEQLKSGTASVVCLLNNFYPREAKVQWKVDNALQSGNSQESVTEQDSKDSTYSLSSTLTLSKADYEKHKVYACEVTHQGLSSPVTKSFNRGEC
modifications: ATAC11 may also sit on light chain cysteines; sites not stated; ATAC11 (maleimide linker with gardiquimod) conjugated by cysteine-based bioconjugation; sites not stated; molar ratio about 4.0
notes: also called SBT-040-G2WT conjugated to ATAC11
For B1, the “fold change against the unconjugated SBT040-G2” value is at most 2 fold.
